The Immune Epitope Database (IEDB)

How the values were obtained:
HLA-A*03:01 = assay: IEDB peptide-MHC binding, purified MHC/direct/fluorescence; filed as Kd, often an IC50 or EC50 that approximates it; ≥ and ≤ were set here for values at or beyond the usual limits of such assays
HLA-A*02:01 = assay: as above
HLA-B*27:03 = assay: IEDB peptide-MHC binding, purified MHC/competitive/fluorescence; filed as Kd, often an IC50 or EC50 that approximates it; ≥ and ≤ were set here for values at or beyond the usual limits of such assays; settings: source organism: Lechiguanas virus
HLA-A*26:01 = assay: as above; settings: source organism: Lechiguanas virus
HLA-B*18:01 [1] = assay: as above; settings: source organism: Lechiguanas virus
HLA-B*39:01 = assay: as above; settings: source organism: Lechiguanas virus
HLA-B*51:01 = assay: as above; settings: source organism: Lechiguanas virus
HLA-B*57:01 [2] = assay: as above; settings: source organism: Lechiguanas virus
HLA-B*46:01 [3] = assay: as above; settings: source organism: Lechiguanas virus
HLA-B*53:01 = assay: IEDB peptide-MHC binding, purified MHC/competitive/radioactivity; filed as Kd, often an IC50 or EC50 that approximates it; ≥ and ≤ were set here for values at or beyond the usual limits of such assays
HLA-B*57:01 [4] = assay: as above
HLA-B*58:01 [5] = assay: as above
HLA-B*15:17 = assay: IEDB peptide-MHC binding, purified MHC/direct/fluorescence; filed as Kd, often an IC50 or EC50 that approximates it; ≥ and ≤ were set here for values at or beyond the usual limits of such assays
HLA-B*57:01 [6] = assay: as above
HLA-B*58:01 [7] = assay: as above
HLA-A*69:01 = assay: as above
HLA-A*02:12 = assay: as above; settings: source organism: Ravn virus - Ravn, Kenya, 1987
HLA-A*68:01 = assay: IEDB peptide-MHC binding, purified MHC/competitive/radioactivity; filed as Kd, often an IC50 or EC50 that approximates it; ≥ and ≤ were set here for values at or beyond the usual limits of such assays; settings: source organism: Dengue virus 2 Jamaica/1409/1983
HLA-A*31:01 [8] = assay: as above; settings: source organism: Dengue virus 2 Jamaica/1409/1983
HLA-B*40:01 = assay: IEDB peptide-MHC binding, purified MHC/direct/fluorescence; filed as Kd, often an IC50 or EC50 that approximates it; ≥ and ≤ were set here for values at or beyond the usual limits of such assays
HLA-B*44:02 = assay: as above
HLA-A*11:01 = assay: as above
HLA-B*48:01 = assay: as above
HLA-B*18:01 [9] = assay: as above
HLA-A*31:01 [10] = assay: as above
HLA-A*01:01 = assay: as above
HLA-B*27:05 = assay: as above
HLA-B*08:01 [11] = assay: as above; settings: source organism: Mammarenavirus lassaense
HLA-A*24:02 = assay: IEDB peptide-MHC binding, purified MHC/competitive/radioactivity; filed as Kd, often an IC50 or EC50 that approximates it; ≥ and ≤ were set here for values at or beyond the usual limits of such assays; settings: source organism: Dengue virus 2 Jamaica/1409/1983
HLA-A*23:01 = assay: as above; settings: source organism: Dengue virus 2 Jamaica/1409/1983
HLA-B*15:03 = assay: as above; settings: source organism: Vaccinia virus WR
HLA-B*15:01 [12] = assay: as above; settings: source organism: Vaccinia virus WR
HLA-A*32:01 = assay: as above
HLA-A*30:01 = assay: as above; settings: source organism: Vaccinia virus WR
HLA-B*08:01 [13] = assay: as above; settings: source organism: Vaccinia virus WR
HLA-A*68:02 = assay: IEDB peptide-MHC binding, purified MHC/direct/fluorescence; filed as Kd, often an IC50 or EC50 that approximates it; ≥ and ≤ were set here for values at or beyond the usual limits of such assays; settings: source organism: Giardia lamblia ATCC 50803
HLA-B*07:02 = assay: as above; settings: source organism: Giardia lamblia ATCC 50803
HLA-B*15:01 [14] = assay: as above; settings: source organism: Giardia lamblia ATCC 50803
HLA-B*46:01 [15] = assay: as above; settings: source organism: Giardia lamblia ATCC 50803
[16] = source organism: Dengue virus 2 Jamaica/1409/1983
[17] = source organism: Yellow fever virus 1899/81
[18] = source organism: Coxiella burnetii
[19] = source organism: Dengue virus 4 Philippines/H241/1956
[20] = source organism: Dengue virus 1 Brazil/97-11/1997
[21] = source organism: Dengue virus 1 Singapore/S275/1990
[22] = source organism: Marburg virus - Musoke, Kenya, 1980
[23] = source organism: Mammarenavirus lassaense
[24] = source organism: dengue virus type 1
[25] = source organism: Giardia lamblia ATCC 50803
[26] = source organism: Rickettsia prowazekii
[27] = source organism: Dengue virus 2 Peru/IQT2913/1996

Q: AMPKTIYEL was tested. Which Kd (HLA-A*03:01; source organism: Lechiguanas virus) did it give?
A: ≥ 20 µM

Q: And the Kd (HLA-A*02:01; source organism: Orthohantavirus andesense)?
A: 0.0373 µM

Q: And the Kd (HLA-B*27:03)?
A: ≥ 20 µM

Q: And the Kd (HLA-A*26:01)?
A: ≥ 20 µM

Q: What about the Kd (HLA-B*18:01 [1]) of the same sequence?
A: ≥ 20 µM

Q: And the Kd (HLA-B*39:01)?
A: ≥ 20 µM

Q: And the Kd (HLA-B*51:01)?
A: ≥ 20 µM

Q: What about the Kd (HLA-B*57:01 [2]) of the same sequence?
A: ≥ 20 µM

Q: And the Kd (HLA-B*46:01 [3])?
A: ≥ 20 µM

Q: How did the Kd (HLA-B*53:01; source organism: Dengue virus 3 Martinique/1243/1999) turn out when IPQWQPSKGW was run?
A: 0.0731 µM

Q: With EAVEDSRFW as the sequence, how does the Kd (HLA-B*53:01; [16]) read?
A: 0.013 µM

Q: And the Kd (HLA-B*57:01 [4]; [16])?
A: 0.0222 µM

Q: What does the source list for NSSVNVSLTA?
A: Kd (HLA-B*58:01 [5]; [16]): 0.01 µM; Kd (HLA-B*57:01 [4]; [16]): 0.433 µM

Q: For LALKEFKEF, which Kd (HLA-B*53:01; [16]) is on record?
A: 1.84 µM

Q: What does the source list for KSAHGSPTF?
A: Kd (HLA-B*15:17; [17]): 0.0049 µM; Kd (HLA-B*57:01 [6]; [17]): 1.27 µM

Q: With HSGDSSCAF as the sequence, how does the Kd (HLA-B*58:01 [7]; [18]) read?
A: 0.75 µM

Q: What about the Kd (HLA-B*15:17; [18]) of the same sequence?
A: 0.253 µM

Q: What about the Kd (HLA-B*57:01 [6]; [18]) of the same sequence?
A: ≥ 20 µM

Q: HMEGVFHTMW was tested. Which Kd (HLA-B*53:01; [19]) did it give?
A: 0.0346 µM

Q: YGVLFSGVSW was tested. Which Kd (HLA-B*53:01; [20]) did it give?
A: 0.261 µM

Q: With GSSIGKMFEA as the sequence, how does the Kd (HLA-B*58:01 [5]; [20]) read?
A: 3 µM

Q: What about the Kd (HLA-B*57:01 [4]; [20]) of the same sequence?
A: 0.853 µM

Q: RLSAAIGKAW was tested. Which Kd (HLA-B*58:01 [5]; [21]) did it give?
A: 0.0062 µM

Q: Which Kd (HLA-B*58:01 [5]; [20]) does the source give for FTSVGKLVHQ here?
A: 1.36 µM

Q: What about the Kd (HLA-B*57:01 [4]; [20]) of the same sequence?
A: 2.39 µM

Q: With ALKEAIEMV as the sequence, how does the Kd (HLA-A*02:01; [22]) read?
A: 0.127 µM

Q: And the Kd (HLA-A*69:01; [22])?
A: 1.8 µM

Q: And the Kd (HLA-A*02:12)?
A: 0.004 µM

Q: Which results are given for RTLGSFTWF?
A: Kd (HLA-B*58:01 [7]; [23]): 0.0138 µM; Kd (HLA-B*15:17; [23]): ≤ 0.001 µM

Q: What does the source list for ASSMVNGVVR?
A: Kd (HLA-A*68:01): 0.0477 µM; Kd (HLA-A*31:01 [8]): ≥ 44.1 µM; Kd (HLA-B*58:01 [5]; [16]): 2.06 µM; Kd (HLA-B*57:01 [4]; [16]): 1.4 µM

Q: How did the Kd (HLA-B*40:01; [23]) turn out when FVRSSPANF was run?
A: ≥ 20 µM

Q: And the Kd (HLA-B*44:02; [23])?
A: ≥ 20 µM

Q: And the Kd (HLA-A*03:01; [23])?
A: ≥ 20 µM

Q: And the Kd (HLA-A*11:01; [23])?
A: ≥ 20 µM

Q: And the Kd (HLA-B*48:01; [23])?
A: ≥ 20 µM

Q: What about the Kd (HLA-B*18:01 [9]; [23]) of the same sequence?
A: ≥ 20 µM

Q: And the Kd (HLA-A*02:01; [23])?
A: ≥ 20 µM

Q: And the Kd (HLA-A*69:01; [23])?
A: ≥ 20 µM

Q: And the Kd (HLA-A*31:01 [10]; [23])?
A: ≥ 20 µM

Q: What about the Kd (HLA-A*01:01; [23]) of the same sequence?
A: ≥ 20 µM

Q: What about the Kd (HLA-B*58:01 [7]; [23]) of the same sequence?
A: ≥ 20 µM

Q: What about the Kd (HLA-B*27:05; [23]) of the same sequence?
A: ≥ 20 µM

Q: What about the Kd (HLA-B*08:01 [11]) of the same sequence?
A: 2.1 µM

Q: For REDQWCGSL, which Kd (HLA-B*44:02; [24]) is on record?
A: ≥ 20 µM

Q: And the Kd (HLA-B*18:01 [9]; [24])?
A: 11.6 µM

Q: What does the source list for TWSIHAKHEW?
A: Kd (HLA-B*58:01 [5]; [16]): 0.0148 µM; Kd (HLA-A*24:02): 0.0399 µM; Kd (HLA-A*23:01): 1.95 µM

Q: Which results are given for KAMSTPFSL?
A: Kd (HLA-B*58:01 [7]; [25]): 0.0153 µM; Kd (HLA-B*15:17; [25]): 0.0013 µM; Kd (HLA-B*57:01 [6]; [25]): 0.0849 µM

Q: Which Kd (HLA-B*57:01 [4]; [20]) does the source give for AVFVDENQW here?
A: 0.000913 µM

Q: Which Kd (HLA-B*58:01 [5]; [20]) does the source give for WSSFKKNGAI here?
A: 5.31 µM

Q: And the Kd (HLA-B*57:01 [4]; [20])?
A: 1.02 µM

Q: RRWCFDGPR was tested. Which Kd (HLA-B*48:01; source organism: West Nile virus) did it give?
A: ≥ 20 µM

Q: With LSSTRVPNYN as the sequence, how does the Kd (HLA-B*58:01 [5]; [19]) read?
A: 0.202 µM

Q: And the Kd (HLA-B*57:01 [4]; [19])?
A: 5.97 µM

Q: For IASTLIVTI, which Kd (HLA-B*15:03) is on record?
A: 0.11 µM

Q: And the Kd (HLA-B*15:01 [12])?
A: 0.156 µM

Q: And the Kd (HLA-A*32:01; source organism: Vaccinia virus WR)?
A: 0.0735 µM

Q: What about the Kd (HLA-A*30:01) of the same sequence?
A: 0.0101 µM

Q: What about the Kd (HLA-B*08:01 [13]) of the same sequence?
A: 8.4 µM

Q: Which Kd (HLA-B*58:01 [5]; source organism: Dengue virus 3 Sri Lanka/1266/2000) does the source give for KAAVEDEEFW here?
A: 0.0114 µM

Q: Which Kd (HLA-B*57:01 [4]; source organism: Dengue virus 3 China/80-2/1980) does the source give for KTSLCLMMML here?
A: 0.0188 µM

Q: For RIGGVLIFR, which Kd (HLA-B*40:01; [25]) is on record?
A: ≥ 20 µM

Q: What about the Kd (HLA-A*68:02) of the same sequence?
A: ≥ 20 µM

Q: What about the Kd (HLA-A*03:01; [25]) of the same sequence?
A: 0.0695 µM

Q: And the Kd (HLA-A*11:01; [25])?
A: 0.0325 µM

Q: What about the Kd (HLA-B*07:02) of the same sequence?
A: ≥ 20 µM

Q: What about the Kd (HLA-B*48:01; [25]) of the same sequence?
A: ≥ 20 µM

Q: And the Kd (HLA-B*18:01 [9]; [25])?
A: ≥ 20 µM

Q: And the Kd (HLA-A*02:01; [25])?
A: ≥ 20 µM

Q: And the Kd (HLA-B*15:01 [14])?
A: ≥ 20 µM

Q: What about the Kd (HLA-A*69:01; [25]) of the same sequence?
A: ≥ 20 µM

Q: What about the Kd (HLA-A*31:01 [10]; [25]) of the same sequence?
A: 0.011 µM

Q: What about the Kd (HLA-A*01:01; [25]) of the same sequence?
A: ≥ 20 µM

Q: And the Kd (HLA-B*58:01 [7]; [25])?
A: 6 µM

Q: What about the Kd (HLA-B*27:05; [25]) of the same sequence?
A: ≥ 5 µM

Q: And the Kd (HLA-B*57:01 [6]; [25])?
A: ≥ 20 µM

Q: What about the Kd (HLA-B*46:01 [15]) of the same sequence?
A: ≥ 20 µM

Q: STYGISEDL was tested. Which Kd (HLA-B*58:01 [7]; [26]) did it give?
A: ≥ 20 µM

Q: And the Kd (HLA-B*15:17; [26])?
A: 0.256 µM

Q: What about the Kd (HLA-B*57:01 [6]; [26]) of the same sequence?
A: ≥ 20 µM

Q: With TASGKLVTQW as the sequence, how does the Kd (HLA-B*58:01 [5]; [19]) read?
A: 0.0226 µM

Q: And the Kd (HLA-B*57:01 [4]; [19])?
A: 1.09 µM

Q: KSYAQMWSL was tested. Which Kd (HLA-B*58:01 [5]; [27]) did it give?
A: 0.00399 µM

Q: And the Kd (HLA-A*32:01; [27])?
A: 0.0063 µM

Q: What about the Kd (HLA-B*57:01 [4]; [27]) of the same sequence?
A: 0.00558 µM

Q: Which results are given for KTSVGVNMCT?
A: Kd (HLA-B*58:01 [5]; [21]): 1.81 µM; Kd (HLA-B*57:01 [4]; [21]): 8.16 µM
